Measurements reported in article PMC5353710, “Structural insights into the γ-lactamase activity and substrate enantioselectivity of an isochorismatase-like hydrolase from Microbacterium hydrocarbonoxydans” (Scientific Reports, 2017).

Molecular target: isochorismatase-like hydrolase Mh33H4-5540 from Microbacterium hydrocarbonoxydans (Microbacterium hydrocarbonoxydans)
Assay: SEC; gel filtration of purified MhIHL (Supplementary Fig. S1); conditions of this run not told in the main text

stoichiometry N: 2
Substance: isochorismatase-like hydrolase Mh33H4-5540 from Microbacterium hydrocarbonoxydans (enzyme)
